Data taken from patent US20230174651A1 (Janssen / Centocor, published 2023).
Numbering of substitutions follows the chain as printed.

B1: CD8B575 (antibody, human IgG1, kappa, V domains shown)
VH: QVQLQQSGGGLVQPGGSLKLSCAASGFTFSNYYMSWARQTPEKRLEWVAYISNDGDATYYPDSVKGRFTISRDNAKNTLYLQMSSLKSEDTAMYYCTREDYYSDYWFASWGQGTTVTVSS
VL: DIVMTQSQKFMSTTIEDRVSITCKASQNVGTAVAWYQQKPGQSPKLLIYSTSNRYTGVPDRFTGSGSGTDFTLTISNIQSEDLADYFCQQYSSYPLTFGGGTKLEIKR
notes: Mouse variable regions on human IgG1 / human kappa constant regions, made in CHO cells; also called AF647-CD8B575
B2: CD8B617 (antibody, human IgG1, kappa)
heavy: not shown
light: DIQMTQSPLTLSVTIGQPASISCKSSQSLLDSDGETYLNWLLQRPGQSPKRLIYLVSKLDSGVPDRFTGSGSGTDFTLKISRVEAEDLGVYYCWQGTHFPLTFGGGTKLEIKRTVAAPSVFIFPPSDEQLKSGTASVVCLLNNFYPREAKVQWKVDNALQSGNSQESVTEQDSKDSTYSLSSTLTLSKADYEKHKVYACEVTHQGLSSPVTKSFNRGEC
notes: Mouse variable regions on human IgG1 / human kappa constant regions
B3: CD8B611 (antibody, human IgG1, kappa, V domains shown)
VH: EVQLQQSGAELVRPGASVNLSCTASGFNFKDDYMHWVKQRPEQGLEWIGWIDPENGDAAYASKFQGKATITADTSSNTAYLQLSSLTSEDTAVYYCITIFRSYWGQGTTLTVSS
VL: not shown
notes: as for B2
B4: CD8B607 (antibody, human IgG1, kappa)
heavy: not shown
light: B2 light with S7T
notes: as for B2
B5: CD8B613 (antibody, human IgG1, kappa)
heavy: not shown
light: DVQMIQSPLSLPVSLGDQASISCRSSQNIVHSNGNTYLEWYLQKPGQSPKLLIYRVSKRFSGVPDRFSGSGSGTDFTLKITRVEAEDLGVYYCFQGSHVPWTFGGGTKLEIKRTVAAPSVFIFPPSDEQLKSGTASVVCLLNNFYPREAKVQWKVDNALQSGNSQESVTEQDSKDSTYSLSSTLTLSKADYEKHKVYACEVTHQGLSSPVTKSFNRGEC
notes: as for B2
B6: CD8B622 (antibody, human IgG1, kappa)
heavy: not shown
light: B5 light with V2I, Q3V, I5T, S7T
notes: Mouse variable regions on human IgG1 / human kappa constant regions; also called CD8B622.001
B7: CD8B623 (antibody, human IgG1, kappa)
heavy: not shown
light: B5 light with Q3V, I5T, S7T
notes: as for B2

Molecular target: T1, human CD8α on primary CD8+ T cells (human, UniProt P01732 22-235)
T1 construct: Endogenous CD8 on T cells from PBMC; also called CD8+ primary T cells; human primary CD8+ cells
Assay: flow cytometry on PBMC, 2 µg/mL mAb, positive cells among EM CD8 T cells, Donor 1
Method: (§1) Frozen PBMCs were thawed and resuspended in FACS buffer (PBS+2% FBS). Cells were then incubated with Fc block for 15 min at 4 C prior to incubation with 2 μg/mL of each CD8α hinge binders at room temperature for 45 min. […] After staining, cells were washed with FACS buffer twice and resuspended in 100 μl PBS containing DAPI for acquisition. Cells were first gated on FSC/SSC, followed by live cell gating (DAPI negative cells) followed by singlet gating. CD3 T cells were identified using FSC versus CD3 dot plot. Within the CD3 T cells, CD4 and CD8 T cells were gated. Naïve, Effector, EM and CM cells were identified within the CD8 T cells using CD45RA and CD27 dot plot. Within each of the cell types, the secondary only control was used to set the gates to identify the positive stained population. The percentage of positive cells in CD8+ T cell population with binding to CD8α hinge binders were quantified and summarized in Table 13.

T1 sequence (P01732 22-235): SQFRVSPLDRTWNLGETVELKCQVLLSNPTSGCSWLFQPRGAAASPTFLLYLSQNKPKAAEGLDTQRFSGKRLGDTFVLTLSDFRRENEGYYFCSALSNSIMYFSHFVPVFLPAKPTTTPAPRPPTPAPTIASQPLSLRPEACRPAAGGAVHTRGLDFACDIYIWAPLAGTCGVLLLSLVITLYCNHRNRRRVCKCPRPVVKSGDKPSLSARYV

Row | Binder | Binding+ in EM (%)
1 | B1 | 69.5%
2 | B2 | 86.2%
3 | B3 | 88.5%
4 | B4 | 82.8%
5 | B5 | 70.5%
6 | B6 | 50.4%
7 | B7 | 56.5%

Molecular target: T2, soluble CAR extracellular domain (ECD) containing scFv and CD8α hinge (UniProt P01732 138-182, biotinylated)
T2 construct: domain: CD8α hinge; also called soluble CAR ECD; CAR ECD
Assay: BLI (OctetRed384), biotinylated CAR ECD on streptavidin tips; the cell stands under the head 'ka (1/Ms)' but the text gives 1.83 nM as the affinity (heads shifted)
Method: (§2) To determine the binding affinity and kinetics of mAbs to CD8α hinge, soluble CAR extracellular domains (ECD) containing scFv and CD8α hinge was generated for Bio-layer interferometry (BLI) analysis using OctetRed384 (Sartorius). The CAR ECD was biotinylated and loaded to streptavidin sensor tip. Then mAbs were associated to the sensor and followed by disassociation in the assay buffer. Data was analyzed by Octet software (Sartorius).

T2 sequence (P01732 138-182): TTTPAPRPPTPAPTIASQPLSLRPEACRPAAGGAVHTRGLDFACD

Row | Binder | Kd
8 | B1 | 1.83 nM

Molecular target: T2, soluble CAR extracellular domain (ECD) …
Assay: BLI (OctetRed384), biotinylated CAR ECD on streptavidin tips; the cell stands under the head 'kd (1/s)' (heads shifted)
Method: as §2

Row | Binder | kon
9 | B1 | 68000 M⁻¹ s⁻¹

Molecular target: T2, soluble CAR extracellular domain (ECD) …
Assay: BLI (OctetRed384), biotinylated CAR ECD on streptavidin tips; the cell stands under the head 'KD (M)' (heads shifted)
Method: as §2

Row | Binder | koff
10 | B1 | 0.000128 s⁻¹

Molecular target: T1, human CD8α on primary CD8+ T cells
Assay: flow cytometry on PBMC, 2 µg/mL mAb, positive cells among EMRA CD8 T cells, Donor 2
Method: as §1

Row | Binder | Binding+ in EMRA (%)
11 | B1 | 92.8%
12 | B2 | 97.3%
13 | B3 | 97.8%
14 | B4 | 97.1%
15 | B5 | 8.76%
16 | B6 | 4.25%
17 | B7 | 5.38%

Molecular target: T2, soluble CAR extracellular domain (ECD) …
Assay: BLI (OctetRed384), GC5W48-Btn (biotinylated CAR ECD) loaded on streptavidin tip, mAb in solution; second of two table rows
Method: as §2

Row | Binder | Kd | kon
18 | B1 | 1.65 nM | 46800 M⁻¹ s⁻¹

Molecular target: T2, soluble CAR extracellular domain (ECD) …
Assay: BLI (OctetRed384), GC5W48-Btn (biotinylated CAR ECD) loaded on streptavidin tip, mAb in solution; first of two table rows; column head 'kdis (1/s)'
Method: as §2

Row | Binder | koff
19 | B1 | 0.000179 s⁻¹

Molecular target: T2, soluble CAR extracellular domain (ECD) …
Assay: BLI (OctetRed384), GC5W48-Btn (biotinylated CAR ECD) loaded on streptavidin tip, mAb in solution; first of two table rows
Method: as §2

Row | Binder | Kd | kon
20 | B1 | 2.01 nM | 89100 M⁻¹ s⁻¹

Molecular target: T1, human CD8α on primary CD8+ T cells
Assay: flow cytometry on PBMC, 2 µg/mL mAb, positive cells among EMRA CD8 T cells, Donor 1
Method: as §1

Row | Binder | Binding+ in EMRA (%)
21 | B1 | 81.3%
22 | B2 | 90.3%
23 | B3 | 91%
24 | B4 | 87.9%
25 | B5 | 72%
26 | B6 | 60.6%
27 | B7 | 63.3%

Molecular target: T2, soluble CAR extracellular domain (ECD) …
Assay: BLI (OctetRed384), GC5W48-Btn (biotinylated CAR ECD) loaded on streptavidin tip, mAb in solution; second of two table rows; column head 'kdis (1/s)'
Method: as §2

Row | Binder | koff
28 | B1 | 7.72e-05 s⁻¹

Molecular target: T1, human CD8α on primary CD8+ T cells
Assay: flow cytometry on PBMC, 2 µg/mL mAb, positive cells among CD8+ T cells, Donor 1
Method: as §1

Row | Binder | Binding in CD8+ cells (%)
29 | B1 | 84.4%
30 | B2 | 88.5%
31 | B3 | 88.8%
32 | B4 | 87.5%
33 | B5 | 73.8%
34 | B6 | 63.1%
35 | B7 | 65.3%

Molecular target: T3, CAR with CD8α hinge as the spacer, expressed on Jurkat CAR-T cells
T3 construct: domain: CD8α hinge; also called CD8α hinge expressed on the Jurkat CAR-T cells
Assay: flow cytometry (iQue) on Jurkat CAR-T cells, A647 anti-human IgG Fc detection
Method: mAbs were 1:3 serially diluted ranging from 100 nM to 1.7 pM and were incubated with cell mixture containing Jurkat CAR-T cells (unstained), Jurkat cells (CTV dye stained) and Sup-T1 cells (CSFE dye stained) in assay media (RPMI 1640+10% HI FBS+Pen/strep) for 1 hr at 37° C. […] Cells were then washed and analyzed by iQue screener (Intellicyt®). ForeCyt software was used for data analysis. The ratio of geomean of AF647 fluorescent signal from sample over the isotype control antibody (Signal) was used for the dose-dependent plot (FIGS. 2A-2F).

T3 sequence (P01732 138-182): as above

Row | Binder | EC50
36 | B1 | 32.6 nM
37 | B2 | 23.7 nM
38 | B3 | 21.6 nM
39 | B4 | 24.7 nM
40 | B5 | 1.9 nM
41 | B6 | 37 nM
42 | B7 | 7.8 nM

Molecular target: T1, human CD8α on primary CD8+ T cells
Assay: flow cytometry on PBMC, 2 µg/mL mAb, positive cells among EM CD8 T cells, Donor 2
Method: as §1

Row | Binder | Binding+ in EM (%)
43 | B1 | 77.9%
44 | B2 | 89.1%
45 | B3 | 91.5%
46 | B4 | 87.4%
47 | B5 | 75.9%
48 | B6 | 50.3%
49 | B7 | 60.6%

Molecular target: T2, soluble CAR extracellular domain (ECD) …
Assay: BLI (OctetRed384), GC5W48-Btn loaded on streptavidin tip; row 'average'; the sheet puts this number under 'kdis (1/s)', Table 14 of the text under 'KD (M)'
Method: as §2

Row | Binder | koff
50 | B1 | 0.000128 s⁻¹

Molecular target: T1, human CD8α on primary CD8+ T cells
Assay: flow cytometry on PBMC, 2 µg/mL mAb, positive cells among CD8+ T cells, Donor 2
Method: as §1

Row | Binder | Binding in CD8+ cells (%)
51 | B1 | 96.4%
52 | B2 | 97.8%
53 | B3 | 98.2%
54 | B4 | 97.7%
55 | B5 | 28.1%
56 | B6 | 16.7%
57 | B7 | 19.5%

Molecular target: T2, soluble CAR extracellular domain (ECD) …
Assay: BLI (OctetRed384), GC5W48-Btn loaded on streptavidin tip; row 'average'; the sheet puts this number under 'kon (1/Ms)', Table 14 of the text under 'kd (1/s)'
Method: as §2

Row | Binder | kon
58 | B1 | 68000 M⁻¹ s⁻¹
